Test results published in US20240368575A1, “AN ENGINEERED YEAST CELL FOR THE DELIVERY OF ANTIBIOTIC-INACTIVATING ENZYMES” (priority 2021, published 2024).

Tests used:
[1] = test system: CC1(C)S[C@@H]2[C@H](NC(=O)[C@H](N)c3ccccc3)C(=O)N2[C@H]1C(=O)O; assay: Steady-state kinetic parameters of purified BL (P3A) beta-lactamase, ampicillin hydrolysis; assay type: biochemical, Bacillus licheniformis 749/C; conditions: other: purified BL protein, assay with ampicillin, 30° C., 50 mM HEPES pH 7.5
[2] = target: P3A variant of the beta-lactamase from Bacillus licheniformis 749/C (BL), SEQ ID NO: 12 (Bacillus licheniformis, UniProt P00808, D288N); assay: as above; assay type: biochemical; conditions: purified BL protein; assay with ampicillin, 30° C., 50 mM HEPES pH 7.5
[3] = test system: C[C@@H](O)[C@H]1C(=O)N2C(C(=O)O)=C(SCCN=CN)C[C@H]12; assay: purified protein, by the assay type; conditions: other: purified BL3 protein, assay with imipenem, 30° C., 50 mM HEPES pH 7.5, 50 μM ZnSO4
[4] = target: VIM-2 metallo-beta-lactamase variant (BL2), SEQ ID NO:115 (parent VIM-2, SEQ ID NO:8) (Pseudomonas aeruginosa, UniProt Q9K2N0, E156D/Q48H/Q60R/V27S/V36A); assay: Steady-state kinetic parameters of purified BL2 beta-lactamase, imipenem hydrolysis; assay type: biochemical; conditions: purified BL2 protein; assay with imipenem, 30° C., 50 mM HEPES pH 7.5, 50 μM ZnSO4
Experimental: β-lactamase genes bl2 and bl3, encoding respectively the metallo β-lactamases VIM-2 variant of amino acid sequence SEQ ID NO:115 and BcII from Bacillus cereus of amino acid sequence SEQ ID NO:117, were heterologously expressed in S. boulardii.
Each sample was measured in triplicates.

P3A variant of the beta-lactamase from Bacillus licheniformis 749/C (BL), SEQ ID NO: 12, sequence (P00808 46-307 D288N): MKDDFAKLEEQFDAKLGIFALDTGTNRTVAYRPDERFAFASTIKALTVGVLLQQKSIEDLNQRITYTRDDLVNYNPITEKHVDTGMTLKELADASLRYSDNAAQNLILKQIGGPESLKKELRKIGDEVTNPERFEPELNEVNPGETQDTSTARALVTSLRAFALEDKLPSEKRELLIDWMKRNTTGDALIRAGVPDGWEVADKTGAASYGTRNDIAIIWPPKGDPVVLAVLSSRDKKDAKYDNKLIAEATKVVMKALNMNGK

## P3A variant of the beta-lactamase from Bacillus licheniformis 749/C (BL), SEQ ID NO: 12 (Bacillus licheniformis; D288N)
[1]
  Km: 180 µM

## CC1(C)S[C@@H]2[C@H](NC(=O)[C@H](N)c3ccccc3)C(=O)N2[C@H]1C(=O)O [ampicillin]
[2]
  kcat: 1,345 s^−1

## BcII metallo-beta-lactamase from Bacillus cereus (BL3), SEQ ID NO:117 (Bacillus cereus)
[3]
  Km: 220 µM
  kcat: 115 s⁻¹

## C[C@@H](O)[C@H]1C(=O)N2C(C(=O)O)=C(SCCN=CN)C[C@H]12 [imipenem]
[4]
  Km: 12 µM
  kcat: 200 s⁻¹
